Biological target: T1, FBXO44^FBA (Homo sapiens, UniProt Q9H4M3)
T1 construct: we expressed and purified only this domain for all in vitro studies; 6xHis (N, cleaved yes); MBP (N, cleaved yes); made in house; host or cells: Escherichia coli Rosetta BL21 (λDE3)
T1 sequence (Q9H4M3 71-252 limits assumed): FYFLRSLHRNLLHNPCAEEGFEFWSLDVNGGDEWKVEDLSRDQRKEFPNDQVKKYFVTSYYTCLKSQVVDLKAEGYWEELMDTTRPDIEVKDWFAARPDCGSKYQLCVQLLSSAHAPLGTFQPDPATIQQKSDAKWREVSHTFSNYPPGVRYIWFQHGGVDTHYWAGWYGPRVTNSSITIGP
Assay: Peptide microarray (PEPperPRINT), FLAG-FBXO44^FBA binding
Conditions: Table S1; RGS2^5–16 single-residue substitution; 2 μg/ml FBXO44^FBA overnight at 4 °C, PBS 0.005% Tween pH 7.4, anti-FLAG DyLight800 fluorescence; three independent experiments with three technical replicates each
Source text: To do so, we utilized a custom peptide microarray (PEPperPRINT GmbH). The design of this array was twofold: (1) substitution at each position with every other natural eukaryotic amino acid; (2) truncation of the peptide from the C terminus. We assessed the binding of FLAG-FBXO44^FBA to the array utilizing fluorescence immunoreactivity corresponding to the amount of FLAG-FBXO44^FBA bound. […] Substitutions at Asp^12 were not only tolerated but also seemed to improve binding in every case (Fig. 3B). This, combined with the fact that substituting any residue in His^11–Met^16 with Arg, and in most cases with Lys, improved FBXO44^FBA binding, indicating the presence of negative charges at the binding interface.
Figure 2 Systematic mutation of the RGS2 degron alters FBXO44^FBA binding. A custom microarray (PEPperPRINT) was designed where each position of the RGS2^5–16 peptide was substituted for each natural amino acid. We also included truncated peptides on the array. This was incubated with purified FBXO44^FBA and probed with α-FLAG. A, a representative scan of a peptide microarray (top) and a truncated peptide (bottom). B, heatmap of mean fluorescence of quantified microarray scans. The scale represents the mean fluorescence in percentage points across all replicates, normalized to the signal obtained with the original residue at each position. C, heatmap of standard deviation of quantified microarray scans. The scale represents the standard deviation in percentage points across all replicates. […] Residues are color-coded based on properties: blue, positive charge; red, negative charge; orange, uncharged polar; green, hydrophobic; yellow, Cys (C); bright green, Pro (P); and black, Gly (G). […] Results of three independent experiments with three technical replicates each. For a statistical significance summary, see Table S1. FBXO44, F-box only protein 44; RGS2, regulator of G protein signaling 2.
Figure 3 Effects of RGS2^5–16 peptide residue changes on FBXO44^FBA binding. Data are presented as % FLAG immunoreactivity, as compared with the parent peptide residue. […] The original residue is marked in each graph with a vertical dotted line. Boxes extend from the 25th to 75th percentile with a line marking the median. Whiskers extend to the minimum and maximum. Results of three independent experiments with three technical replicates each. Data were analyzed by two-way ANOVA, with Tukey's post hoc test for pairwise comparison (simple effect within columns). Statistical significance is summarized in Table S1 and color-coded according to the legend. FBXO44, F-box only protein 44; RGS2, regulator of G protein signaling 2.
The microarray slide was seated into the incubation tray according to PEPperPRINT's instructions. The array well was then incubated in washing buffer (PBS) with 0.005% Tween (Sigma; P1379, pH 7.4) at room temperature for 15 min on an orbital shaker. Washing buffer was aspirated, and the array was then incubated with Rockland blocking buffer at room temperature for 30 min on an orbital shaker. Blocking buffer was then aspirated, and the array was incubated in staining buffer (washing buffer with 10% Rockland blocking buffer) at room temperature for 15 min on an orbital shaker. Staining buffer was aspirated, and purified FBXO44 FBA domain diluted to 2 μg/ml in staining buffer was added. The array was then placed on an orbital shaker overnight at 4 °C. The FBA domain solution was removed, and an array was washed three times with washing buffer. After the third array was incubated in staining buffer for 15 min at 4 °C on an orbital shaker. The array was then incubated with antibody dilution (anti-FLAG DyLight800 and anti-HA DyLight680, both diluted 1:2000 in staining buffer) for 45 min at 4° C on an orbital shaker. The array was then washed three times with washing buffer. […]

Substance | Mean % difference from parent peptide (FLAG immunoreactivity) [%]
P15K: array RGS2^5–16 peptide, P15 substituted by K (MFLAVQHDCRKM; UniProt P41220 5-16, looked up, variant P15K) | 52.32
A8R: array RGS2^5–16 peptide, A8 substituted by R (MFLRVQHDCRPM; UniProt P41220 5-16, looked up, variant A8R) | 27.84
D12S: array RGS2^5–16 peptide, D12 substituted by S (MFLAVQHSCRPM; UniProt P41220 5-16, looked up, variant D12S) | 59.59
P15A: array RGS2^5–16 peptide, P15 substituted by A | -27.06
C13P: array RGS2^5–16 peptide, C13 substituted by P (MFLAVQHDPRPM; UniProt P41220 5-16, looked up, variant C13P) | -84.68
M16D: array RGS2^5–16 peptide, M16 substituted by D (MFLAVQHDCRPD; UniProt P41220 5-16, looked up, variant M16D) | 31.28
D12F: array RGS2^5–16 peptide, D12 substituted by F (MFLAVQHFCRPM; UniProt P41220 5-16, looked up, variant D12F) | 34.22
D12N: array RGS2^5–16 peptide, D12 substituted by N (MFLAVQHNCRPM; UniProt P41220 5-16, looked up, variant D12N) | 55.82
D12I: array RGS2^5–16 peptide, D12 substituted by I (MFLAVQHICRPM; UniProt P41220 5-16, looked up, variant D12I) | 42.93
P15C: array RGS2^5–16 peptide, P15 substituted by C | 26.71
D12V: array RGS2^5–16 peptide, D12 substituted by V (MFLAVQHVCRPM; UniProt P41220 5-16, looked up, variant D12V) | 40.66
C13F: array RGS2^5–16 peptide, C13 substituted by F (MFLAVQHDFRPM; UniProt P41220 5-16, looked up, variant C13F) | -82.91
D12M: array RGS2^5–16 peptide, D12 substituted by M (MFLAVQHMCRPM; UniProt P41220 5-16, looked up, variant D12M) | 42.32
M16C: array RGS2^5–16 peptide, M16 substituted by C | 30.03
D12H: array RGS2^5–16 peptide, D12 substituted by H (MFLAVQHHCRPM; UniProt P41220 5-16, looked up, variant D12H) | 37.64
M16R: array RGS2^5–16 peptide, M16 substituted by R (MFLAVQHDCRPR; UniProt P41220 5-16, looked up, variant M16R) | 101.4
C13W: array RGS2^5–16 peptide, C13 substituted by W (MFLAVQHDWRPM; UniProt P41220 5-16, looked up, variant C13W) | -46.69
C13Y: array RGS2^5–16 peptide, C13 substituted by Y (MFLAVQHDYRPM; UniProt P41220 5-16, looked up, variant C13Y) | -42.98
D12C: array RGS2^5–16 peptide, D12 substituted by C | 43.97
D12K: array RGS2^5–16 peptide, D12 substituted by K (MFLAVQHKCRPM; UniProt P41220 5-16, looked up, variant D12K) | 124.2

Further lines, results first:

Mean % difference from parent peptide (FLAG immunoreactivity) [%] | Substance
-89.67 | C13G: array RGS2^5–16 peptide, C13 substituted by G (MFLAVQHDGRPM; UniProt P41220 5-16, looked up, variant C13G)
-27.86 | M16G: array RGS2^5–16 peptide, M16 substituted by G (MFLAVQHDCRPG; UniProt P41220 5-16, looked up, variant M16G)
-83.62 | C13H: array RGS2^5–16 peptide, C13 substituted by H (MFLAVQHDHRPM; UniProt P41220 5-16, looked up, variant C13H)
32.54 | R14W: array RGS2^5–16 peptide, R14 substituted by W (MFLAVQHDCWPM)
48.95 | D12W: array RGS2^5–16 peptide, D12 substituted by W (MFLAVQHWCRPM; UniProt P41220 5-16, looked up, variant D12W)
-72.59 | C13A: array RGS2^5–16 peptide, C13 substituted by A (MFLAVQHDARPM; UniProt P41220 5-16, looked up, variant C13A)
-85.38 | C13N: array RGS2^5–16 peptide, C13 substituted by N (MFLAVQHDNRPM; UniProt P41220 5-16, looked up, variant C13N)
31.74 | P15D: array RGS2^5–16 peptide, P15 substituted by D (MFLAVQHDCRDM; UniProt P41220 5-16, looked up, variant P15D)
-88.83 | C13L: array RGS2^5–16 peptide, C13 substituted by L (MFLAVQHDLRPM; UniProt P41220 5-16, looked up, variant C13L)
28.74 | D12G: array RGS2^5–16 peptide, D12 substituted by G (MFLAVQHGCRPM; UniProt P41220 5-16, looked up, variant D12G)
35.61 | C13R: array RGS2^5–16 peptide, C13 substituted by R (MFLAVQHDRRPM; UniProt P41220 5-16, looked up, variant C13R)
-87.05 | C13S: array RGS2^5–16 peptide, C13 substituted by S (MFLAVQHDSRPM; UniProt P41220 5-16, looked up, variant C13S)
-87.12 | C13E: array RGS2^5–16 peptide, C13 substituted by E (MFLAVQHDERPM; UniProt P41220 5-16, looked up, variant C13E)
-33.89 | M16A: array RGS2^5–16 peptide, M16 substituted by A (MFLAVQHDCRPA; UniProt P41220 5-16, looked up, variant M16A)

Same assay, conditions: versus parent RGS2^5–16 peptide; 2 μg/ml FBXO44^FBA overnight at 4 °C; fluorescence

Substance | FBXO44^FBA binding in peptide microarray (in words)
R14W: array RGS2^5–16 peptide, R14 substituted by W (MFLAVQHDCWPM) | modest effects, with only one or two substitutions for each reaching significance
